# B1: Gαq (activated) (protein)
# chain: MTLESIMACCLSEEAKEARRINDEIERQLRRDKRDARRELKLLLLGTGESGKSTFIKQMRIIHGSGYSDEDKRGFTKLVYQNIFTAMQAMIRAMDTLKIPYKYEHNKAHAQLVREVDVEKVSAFENPYVDAIKSLWNDPGIQECYDRRREYQLSDSTKYYLNDLDRVADPSYLPTQQDVLRVRVPTTGIIEYPFDLQSVIFRMVDVGGQRSERRKWIHCFENVTSIMFLVALSEYDQVLVESDNENRMEESKALFRTIITYPWFQNSSVILFLNKKDLLEEKIMYSHLVDYFPEYDGPQRDAQAAREFILKMFVDLNPDSDKIIYSHFTCATDTENIRFVFAAVKDTILQLNLKEYNLV
# modifications: activated Gαq, with γ-synuclein
# Biological target: PLCβ2 (Homo sapiens, UniProt Q00722)
# Experiment: fluorescence titration
# Chain of PLCβ2 (Q00722 whole entry): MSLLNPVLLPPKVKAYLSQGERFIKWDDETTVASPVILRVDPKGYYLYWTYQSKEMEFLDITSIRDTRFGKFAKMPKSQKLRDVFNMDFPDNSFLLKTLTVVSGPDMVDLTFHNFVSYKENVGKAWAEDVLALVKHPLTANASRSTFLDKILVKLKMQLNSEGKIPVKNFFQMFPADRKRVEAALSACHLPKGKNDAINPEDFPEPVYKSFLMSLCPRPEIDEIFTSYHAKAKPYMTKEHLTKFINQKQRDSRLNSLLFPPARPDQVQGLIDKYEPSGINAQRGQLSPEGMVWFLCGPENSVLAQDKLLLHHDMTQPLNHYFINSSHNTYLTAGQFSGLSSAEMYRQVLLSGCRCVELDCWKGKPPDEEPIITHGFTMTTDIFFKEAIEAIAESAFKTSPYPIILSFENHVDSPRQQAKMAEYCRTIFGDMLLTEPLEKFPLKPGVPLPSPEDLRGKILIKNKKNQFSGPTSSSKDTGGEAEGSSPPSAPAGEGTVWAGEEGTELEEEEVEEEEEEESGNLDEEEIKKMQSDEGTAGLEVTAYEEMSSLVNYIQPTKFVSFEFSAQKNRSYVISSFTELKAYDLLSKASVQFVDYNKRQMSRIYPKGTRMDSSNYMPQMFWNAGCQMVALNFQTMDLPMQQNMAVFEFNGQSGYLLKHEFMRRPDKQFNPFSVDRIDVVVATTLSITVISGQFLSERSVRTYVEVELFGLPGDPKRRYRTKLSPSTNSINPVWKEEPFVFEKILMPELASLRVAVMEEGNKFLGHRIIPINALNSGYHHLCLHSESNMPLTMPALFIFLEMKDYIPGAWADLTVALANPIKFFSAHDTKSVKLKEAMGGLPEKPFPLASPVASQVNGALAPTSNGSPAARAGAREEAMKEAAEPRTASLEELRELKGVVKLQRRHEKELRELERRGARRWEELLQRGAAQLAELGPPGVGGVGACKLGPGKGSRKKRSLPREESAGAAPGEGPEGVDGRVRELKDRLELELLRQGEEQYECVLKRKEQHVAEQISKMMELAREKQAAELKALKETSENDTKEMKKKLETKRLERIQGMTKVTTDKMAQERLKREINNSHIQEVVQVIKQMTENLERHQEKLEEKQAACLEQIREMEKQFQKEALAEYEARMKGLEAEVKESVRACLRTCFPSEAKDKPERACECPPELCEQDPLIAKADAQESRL
binder,measurement,value
B1,Kd,0.9 nM

# — article PMC3414502 (2012)
